Results as given in paper PMC10786891, “Massively parallel profiling of RNA-targeting CRISPR-Cas13d”.
Positions count from the first letter of the chain named. Names and notes keep the numbering of the source.

T1: EsCas13d, nuclease-dead (Eubacterium siraeum, UniProt B0MS50, R295A;H300A;R849A;H854A)
T1 sequence: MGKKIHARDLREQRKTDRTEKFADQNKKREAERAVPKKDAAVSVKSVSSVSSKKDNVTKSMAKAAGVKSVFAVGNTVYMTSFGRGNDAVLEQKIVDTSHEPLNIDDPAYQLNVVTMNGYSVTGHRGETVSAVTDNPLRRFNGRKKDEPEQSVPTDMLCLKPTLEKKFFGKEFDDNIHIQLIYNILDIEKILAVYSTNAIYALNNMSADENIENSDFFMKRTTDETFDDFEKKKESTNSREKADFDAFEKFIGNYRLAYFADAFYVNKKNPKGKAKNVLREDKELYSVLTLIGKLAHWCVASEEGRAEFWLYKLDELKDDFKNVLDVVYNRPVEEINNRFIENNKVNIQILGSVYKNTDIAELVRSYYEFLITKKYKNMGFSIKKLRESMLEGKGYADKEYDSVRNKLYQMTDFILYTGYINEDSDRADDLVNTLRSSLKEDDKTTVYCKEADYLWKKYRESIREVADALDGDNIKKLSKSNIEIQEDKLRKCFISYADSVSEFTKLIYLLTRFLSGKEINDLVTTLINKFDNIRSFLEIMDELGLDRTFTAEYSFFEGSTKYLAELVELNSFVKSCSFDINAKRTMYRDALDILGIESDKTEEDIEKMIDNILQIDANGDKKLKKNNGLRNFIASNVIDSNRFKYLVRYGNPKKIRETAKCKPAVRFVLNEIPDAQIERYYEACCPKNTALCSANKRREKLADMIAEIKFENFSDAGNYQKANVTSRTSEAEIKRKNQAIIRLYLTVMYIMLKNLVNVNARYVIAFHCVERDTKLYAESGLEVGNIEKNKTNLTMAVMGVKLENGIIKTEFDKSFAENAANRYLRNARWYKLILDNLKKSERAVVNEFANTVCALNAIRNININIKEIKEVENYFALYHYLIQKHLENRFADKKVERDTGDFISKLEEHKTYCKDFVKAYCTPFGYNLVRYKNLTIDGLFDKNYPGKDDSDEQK

B1: target 1 A9C,G12U (mixed)
RNA 1: CACCCGUGCAAAAAUGCAGGGGUCUAAAACUGAGCGGAUAACCUCUCUAUGG
RNA 2: GGGAAUGGAUCCACAUCUACGAAUUCGUACCAUAGAGAGUUUCUCCGCUCACCGAGAUCGGAAGAGCACACGU
B2: target 1 insU 3' of 20,insU 3' of 14 (mixed)
RNA 1: B1 RNA 1
RNA 2: GGGAAUGGAUCCACAUCUACGAAUUCGUACCAUUAGAGAUGGUUAUCCGCUCACCGAGAUCGGAAGAGCACACGU
B3: target 1 G12C,A14C (mixed)
RNA 1: B1 RNA 1
RNA 2: B1 RNA 2 with A38C, U40C, C43A
B4: target 1 C6A,U10C (mixed)
RNA 1: B1 RNA 1
RNA 2: B1 RNA 2 with U40G, U42C, C43A, C46A
B5: target 1 C2A,U11G (mixed)
RNA 1: B1 RNA 1
RNA 2: B1 RNA 2 with U40G, U41G, C43A, C50A
B6: target 1 insC 3' of 20,insG 3' of 16 (mixed)
RNA 1: B1 RNA 1
RNA 2: B2 RNA 2 with U33C, A39G, U40A
B7: target 1 C4G,G5C (mixed)
RNA 1: B1 RNA 1
RNA 2: B1 RNA 2 with U40G, C43A, G47C, C48G
B8: target 1 G15U,G17U (mixed)
RNA 1: B1 RNA 1
RNA 2: B1 RNA 2 with G35U, G37U, U40G, C43A
B9: target 1 C4G,U10C (mixed)
RNA 1: B1 RNA 1
RNA 2: B1 RNA 2 with U40G, U42C, C43A, C48G
B10: target 1 insG 3' of 14,insU 3' of 4 (mixed)
RNA 1: B1 RNA 1
RNA 2: GGGAAUGGAUCCACAUCUACGAAUUCGUACCAUAGAGAGGGUUAUCCGCUUCACCGAGAUCGGAAGAGCACACGU
B11: target 1 insA 3' of 21,insC 3' of 1 (mixed)
RNA 1: B1 RNA 1
RNA 2: GGGAAUGGAUCCACAUCUACGAAUUCGUACCAAUAGAGAGGUUAUCCGCUCACCCGAGAUCGGAAGAGCACACGU
B12: target 1 insC 3' of 14,insA 3' of 4 (mixed)
RNA 1: B1 RNA 1
RNA 2: B10 RNA 2 with G39C, U50A
B13: target 1 insG 3' of 22,insG 3' of 2 (mixed)
RNA 1: B1 RNA 1
RNA 2: B11 RNA 2 with C31G, A32C, A52G, C53A
B14: target 1 G5A,A16C (mixed)
RNA 1: B1 RNA 1
RNA 2: B1 RNA 2 with A36C, U40G, C43A, G47A
B15: target 1 insG 3' of 10,insA 3' of 4 (mixed)
RNA 1: B1 RNA 1
RNA 2: B10 RNA 2 with G41U, U43G, U50A
B16: target 1 complement block 2-10 (mixed)
RNA 1: B1 RNA 1
RNA 2: GGGAAUGGAUCCACAUCUACGAAUUCGUACCAUAGAGAGGUAUAGGCGAGACCGAGAUCGGAAGAGCACACGU
B17: target 1 insC 3' of 15,insU 3' of 7 (mixed)
RNA 1: B1 RNA 1
RNA 2: B10 RNA 2 with A38C, G39A, C47U, G48C, C49G, U50C
B18: target 1 U11A,C22U (mixed)
RNA 1: B1 RNA 1
RNA 2: B1 RNA 2 with C30U, U40G, U41A, C43A
B19: target 1 insG 3' of 9,insC 3' of 8 (mixed)
RNA 1: B1 RNA 1
RNA 2: B10 RNA 2 with G41U, U43A, A44G, G48C, C49G, U50C
B20: target 1 insC 3' of 13,insU 3' of 6 (mixed)
RNA 1: B1 RNA 1
RNA 2: B10 RNA 2 with G40C, G48U, C49G, U50C
B21: target 1 insC 3' of 15,insU 3' of 12 (mixed)
RNA 1: B1 RNA 1
RNA 2: B2 RNA 2 with U34A, A35G, G36A, A37G, G38C, U40G, G42U
B22: target 1 del5,del11 (mixed)
RNA 1: B1 RNA 1
RNA 2: GGGAAUGGAUCCACAUCUACGAAUUCGUACCAUAGAGAGGUAUCCCUCACCGAGAUCGGAAGAGCACACGU
B23: target 1 insA 3' of 21,insA 3' of 2 (mixed)
RNA 1: B1 RNA 1
RNA 2: B11 RNA 2 with C53A
B24: target 1 U8A,U11C (mixed)
RNA 1: B1 RNA 1
RNA 2: B1 RNA 2 with U40G, U41C, C43A, U44A
B25: target 1 insG 3' of 10,insU 3' of 2 (mixed)
RNA 1: B1 RNA 1
RNA 2: B10 RNA 2 with G41U, U43G, U51C, C52U
B26: target 1 insU 3' of 21,insU 3' of 18 (mixed)
RNA 1: B1 RNA 1
RNA 2: B2 RNA 2 with A32U, U33A, G36U, A37G, G38A, A39G, U40A
B27: target 1 insC 3' of 20,insA 3' of 6 (mixed)
RNA 1: B1 RNA 1
RNA 2: B11 RNA 2 with A33C, G48A, C49G, U50C, C51U, A52C, C53A
B28: target 1 insA 3' of 22,insU 3' of 22 (mixed)
RNA 1: B1 RNA 1
RNA 2: GGGAAUGGAUCCACAUCUACGAAUUCGUACAUCAUAGAGAGGUUAUCCGCUCACCGAGAUCGGAAGAGCACACGU
B29: target 1 insC 3' of 15,insA 3' of 11 (mixed)
RNA 1: B1 RNA 1
RNA 2: B2 RNA 2 with U34A, A35G, G36A, A37G, G38C, U40G, G42U, U43A
B30: target 1 insU 3' of 21,insA 3' of 4 (mixed)
RNA 1: B1 RNA 1
RNA 2: B11 RNA 2 with A32U, U50A, C51U, A52C, C53A
B31: target 1 insC 3' of 20,insU 3' of 20 (mixed)
RNA 1: B1 RNA 1
RNA 2: B28 RNA 2 with A31C, U32A, A34U
B32: target 1 U8G,G15A (mixed)
RNA 1: B1 RNA 1
RNA 2: B1 RNA 2 with G37A, U40G, C43A, U44G
B33: target 1 U11C,G13A (mixed)
RNA 1: B1 RNA 1
RNA 2: B1 RNA 2 with G39A, U40G, U41C, C43A
B34: target 1 insA 3' of 21,insU 3' of 1 (mixed)
RNA 1: B1 RNA 1
RNA 2: B11 RNA 2 with C53U

Each binder was assayed against T1, EsCas13d, nuclease-dead (assay: crRNA (strand 1, pre-loaded); Mg2+; 40 mM Tris-HCl pH 7.5, 150 mM NaCl, 6 mM MgCl2, 1 mM DTT, 0.1% Tween-20, 0.2 mg/ml BSA; 25 C; 10 min per concentration, then washed). Details: tags: His6-TwinStrep-SUMO cleaved; N-terminal SNAP kept (SNAP-Surface 488); label: 3' end held by stalled T7 RNA polymerase.

| Binder | Kd [nM] |
| --- | --- |
| B1 | 19.3 ± 1.2 |
| B2 | 53 ± 21 |
| B3 | 89 ± 33 |
| B4 | 18.8 ± 1.4 |
| B5 | 16.6 ± 1 |
| B6 | 11.8 ± 0.9 |
| B7 | 15.7 ± 1 |
| B8 | 86 ± 21 |
| B9 | 5.15 ± 0.3 |
| B10 | 11.7 ± 1.1 |
| B11 | 13.7 ± 0.7 |
| B12 | 24.3 ± 1.9 |
| B13 | 38 ± 5 |
| B14 | 57 ± 12 |
| B15 | 35 ± 5 |
| B16 | 13.3 ± 0.6 |
| B17 | 17.1 ± 0.9 |

| Binder | Kd [nM] |
| --- | --- |
| B18 | 52 ± 16 |
| B19 | 29.5 ± 2.9 |
| B20 | 11 ± 0.9 |
| B21 | 14.6 ± 0.9 |
| B22 | 30 ± 1.5 |
| B23 | 17.7 ± 1 |
| B24 | 12.6 ± 0.9 |
| B25 | 24.7 ± 1.7 |
| B26 | 52 ± 5 |
| B27 | 11.1 ± 0.6 |
| B28 | 12.5 ± 1 |
| B29 | 79 ± 18 |
| B30 | 15.6 ± 1.3 |
| B31 | 18.3 ± 0.9 |
| B32 | 56 ± 6 |
| B33 | 8.7 ± 1.3 |
| B34 | 18.5 ± 1.3 |
